The numbers were not newly measured in publication PMC7229808, which cites them from elsewhere.

This data set addresses PCNA (Saccharomyces cerevisiae) (UniProt P15873). The data set is described as follows: NMR titration.
UniProt P15873, sequence (P15873 whole entry): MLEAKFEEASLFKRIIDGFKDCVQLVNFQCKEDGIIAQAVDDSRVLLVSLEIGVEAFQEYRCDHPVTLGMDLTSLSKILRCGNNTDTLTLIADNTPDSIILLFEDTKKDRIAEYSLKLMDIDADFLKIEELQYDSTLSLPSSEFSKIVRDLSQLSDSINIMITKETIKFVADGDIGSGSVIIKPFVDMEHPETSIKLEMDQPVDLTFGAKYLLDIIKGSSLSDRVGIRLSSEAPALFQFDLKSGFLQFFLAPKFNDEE

Turning to Rev1 BRCT (from UniProt P12689), the Kd was 78 µM.

As a reminder, the Kd is the constant that tells how readily two partners part at equilibrium.
